What was measured:
[1] = target: NaV1.5 CTerm Long (not stated (human or rat cDNA cloned)); assay: ITC; Ca2+-saturating: CTerm (2–25 µM) in the sample cell, CaM, CaM12 or CaM34 (30–1000 µM) as titrant; 20 mM MOPS, 150 mM NaCl, 1 mM MgCl2, 50 µM EGTA with 1 mM CaCl2; VP-ITC, single binding site fit, one replicate
[2] = target: NaV1.5 CTerm Long (not stated (human or rat cDNA cloned)); assay: as above; remark: listed apart in the source
[3] = target: NaV1.5 CTerm Long (not stated (human or rat cDNA cloned)); assay: ITC; Ca2+-free: CTerm (2–25 µM) in the sample cell, CaM (30–1000 µM) as titrant; 20 mM MOPS, 150 mM NaCl, 1 mM MgCl2, 50 µM EGTA; VP-ITC, single binding site fit, one replicate
[4] = target: NaV1.4 CTerm Long (residues 1599–1764), freed of CaM for ITC (human) (UniProt P35499); assay: ITC; Ca2+-saturating: CTerm (2–25 µM) in the sample cell, CaM, CaM12 or CaM34 (30–1000 µM) as titrant; 20 mM MOPS, 150 mM NaCl, 1 mM MgCl2, 50 µM EGTA with 1 mM CaCl2; VP-ITC, single binding site fit, one replicate
[5] = target: NaV1.4 CTerm Short (residues 1599–1754), freed of CaM for ITC (human) (UniProt P35499); assay: as above

Substance	Kd [1]	Kd [2]	Kd [3]	Kd [4]	Kd [5]
calmodulin (full-length mammalian calmodulin, R. norvegicus CALM2) (from UniProt P0DP30 1-149) (natural protein)	70 nM	89 nM	48 nM		
CaM34 (D93A, D129A; C lobe Ca^2+ binding disabled) (natural protein)		90 nM		121 nM	282 nM
CaM12 (D20A, D56A; N lobe Ca^2+ binding disabled) (natural protein)		3600 nM		154 nM	156 nM

— PMC6447637
